Source: the nanobody polyreactivity screen of Harvey et al. (2022)

test: yeast display, Sf9 membrane polyspecificity reagent, FACS + sequencing; frameworks hold sequencing errors
Summary of the method: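 Galactose-induced (36–48 hours) yeast carrying a synthetic nanobody display library were exposed to 10% biotinylated, detergent-solubilized Sf9 membrane reagent at 4 °C for 1 hour. FACS followed streptavidin microbead enrichment, using low and high (top ~1%) gates for expression (anti-HA) and reagent binding (streptavidin). Colony PCR, MiSeq 2 × 250 sequencing and CDR-length filtering followed. Labels for polyreactivity reflect the gate of origin.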

| Sequence | polyreactivity (PSR sort gate) |
| --- | --- |
| QVQLVESGGGLVQAGGSLRLSCAASGSTFTYYAMGWYRQAPGKERELVAAITSRGGITYYADSVKGRFTISRDNAKNTVYLQMNSLKPEDTAVYYCNAYSQRYGYYYWGQGTQVTVSS | high polyreactivity |
| QVQLVESGGGLVQAGGSLRLSCAASGSTFTYYAMGWYRQAPGKERELVAAITWSGVSTYYADSVKGRFTISRDNAKNTVYLQMNSLKPEDTAVYYCANGYSYGWWGGFGYWGQGTQVTVSS | high polyreactivity |
| QVQLVESGGGLVQAGGSLRLSCAASGSTFTYYAMGWYRQSPGKERELVAAISWRGGSTYYADSVKGRFTISRDNAKNTVYLQMNSLKPEDNAVYYCAASRTFYRAVTQTGSPMDYWGQGTQVTVSS | high polyreactivity |
| QVQLVESGGGLVQAGGSLRLSCAASGSTFVANAMGWYRQAPGKERELVAAIDYDDGGTYYADSVKGRFTISRDNAKNTVYLQMNSLKPEDTAVYYCAADYGDIGAVLHYPVELGYWGQGTQVTVSS | low polyreactivity |
| QVQLVESGGGLVQAGGSLRLSCAASGSTFVANTMGWYRQAPGKERELVATIRRSGGSTYYADSVKGRFTISRDNAKNTVYLQMNSLKPEDTAVYYCAKDSRWPSYRGMDYWGQGTQVTVSS | low polyreactivity |
| QVQLVESGGGLVQAGGSLRLSCAASGSTFVAYAMGSYRQAPGKERELVAAISASGVRTYYADSVKGRFTISRDNAKNTVYLQMNSLKPEDTAVYYCAATVFRKYRYGYWGQGTQVTVSS | high polyreactivity |
| QVQLVESGGGLVQAGGSLRLSCAASGSTFVDNAMGWYRQAPGKEREFVAAIDWSGGSTFYADSVKGRFTISRDNAKNTVYLQMNSLKPEDTAVYYCNADSYPQGDYWGQGSQVTVSS | low polyreactivity |
| QVQLVESGGGLVQAGGSLRLSCAASGSTFVDNAMGWYRQAPGKERELVAAIRDGSGGSTRYADSVKGRFTISRDNAKNTVYLQMNSLKPEDTAVYYCAADGYITVNYLRYDYWGQGTQVTVSS | low polyreactivity |
| QVQLVESGGGLVQAGGSLRLSCAASGSTFVDNAMGWYRQAPGKERELVAAISTRGGTTYYADSVKGRFTISRDNAKNTVYLQMKSLKAEDTAVYYCAAEIFTSVWWRWVDGDYWGQGTQVTVSS | high polyreactivity |
| QVQLVESGGGLVQAGGSLRLSCAASGSTFVDNAMGWYRQAPGKERELVADISSGGSTYYADSVKGRFTISRDNAKNTVYLQMNSLKPEDTAVYYCNAESFYWWHSYDYWGQGTQVTVSS | high polyreactivity |
| QVQLVESGGGLVQAGGSLRLSCAASGSTFVDNAMGWYRQAPGKERELVASITYRGGSTYYADSVKGRFTISRDNAKNTVYLQMNSLKPEDTAVYYCAKGHYFKYDYWGQGTQVTVSS | low polyreactivity |
| QVQLVESGGGLVQAGGSLRLSCAASGSTFVDNDMGWYRQAPGKERELVAAIDQSGGSTSYADSVKGRFTISRDNAKNTVYLQMNSLKPEDTAVYYCATPSYTTAYVEGDYWGQGTQVTVSS | low polyreactivity |
| QVQLVESGGGLVQAGGSLRLSCAASGSTFVENAMGWYRQAPGKERELVAAISSSGDSTFYADSVKGRFTISRDNAKNTVYLKMNSLKPEDTAVYYCAADRRINYDGLDMDYWGQGTQVTVSS | low polyreactivity |
| QVQLVESGGGLVQAGGSLRLSCAASGSTFVFNAMGWYRPAPGKERELVAAISSTGSTYYADSVKGRFTISRDNAKNTVYLQMNSLKPEDTAVYYCAAPYGFSYKGATYDSWGQGTQVTVSS | high polyreactivity |
| QVQLVESGGGLVQAGGSLRLSCAASGSTFVGNAMGWYRQAPGKERELVATIRYSDGSTYYADSVKGRFTISRDNAKNTVYLQMNSLKPEDTAVYYCATRVKQKGPYRYSARYFYTYNYWGQGTQVTVSS | high polyreactivity |
| QVQLVESGGGLVQAGGSLRLSCAASGSTFVGYAMGWYRQAPGKERELVAAITSRGGRTYYADSVKGRFTISRDNAKNTVYLQMNSLKPEDTAVYYCNAKRPRIGVTRYDYWGQGTQVTVSS | high polyreactivity |
| QVQLVESGGGLVQAGGSLRLSCAASGSTFVGYAMGWYRQAPGKERELVADIDSIGGSTYYADSVKGRFTISRDNAKNTVYLQMNSLKPEDTAVDYCAARRFDTALVLYDYWGQGTQVTVSS | low polyreactivity |
| QVQLVESGGGLVQAGGSLRLSCAASGSTFVGYARGWYRQEPGNETELVAAISGSGTSTYYADSVKGRFTISLDNAKNTVYLQMNSLKPEDTAVYYCKADPIFVYSSYNYWGQGTQVTVSS | low polyreactivity |
| QVQLVESGGGLVQAGGSLRLSCAASGSTFVHYAMGWYRQAPGKERELVAAINDGGSTHYADSVKGRFTISRDNAKNTVYLQMNSLKPEDTAVYYCAAEYVWYRYPDYWGAYDYWGQGTQVTVSS | low polyreactivity |
| QVQLVESGGGLVQAGGSLRLSCAASGSTFVIYAMGWYRQAPGKERELVAAIRRRGGSTYYADSVKGRFTISRDNAKNTVYLQMNSLKPEDSAVYYCATAGQGAFWGQGTQVTVSS | high polyreactivity |
| QVQLVESGGGLVQAGGSLRLSCAASGSTFVIYAMGWYRQAPGKERELVAAITFSGGRTYYADSVKGRFTISRDNAKNTVYLQMNSLKPEDTAVYYCNARHRNLAEYDYWGQGTQVTVSS | low polyreactivity |

| Sequence | polyreactivity (PSR sort gate) |
| --- | --- |
| QVQLVESGGGLVQAGGSLRLSCAASGSTFVKNVMGWYRQAPGKERELVAGITRGGSTYYADSVKGRFTISRDNAKNTVYLQMNSLKPEDTAVYYCNRVRYPSYDYWGQGTQVTVSS | high polyreactivity |
| QVQLVESGGGLVQAGGSLRLSCAASGSTFVKSAMGLYRQAPGKERELVAAINWSGGNTYYADSVKGRFKISRYNAKNTVYLQMNSLKPEETAVYYCNADAYRSDFDYWGQGTQVTVSS | high polyreactivity |
| QVQLVESGGGLVQAGGSLRLSCAASGSTFVLNAMGWYRQAPGKERELVAAITGSGSTKYADSVKGLFTISRDNAKNTVYLQMNSLKPEDTAVYYCATAAVYPIPFGYWGQGTQVTVSS | low polyreactivity |
| QVQLVESGGGLVQAGGSLRLSCAASGSTFVLYAMGWYRQAPGKERELVATISSGGSTYYADSVKGRFTISRDNAKNTVYLQMNSLKPEDTAVYYCAASYSRFVDWIGDPGYDYWGQGTQVTVSS | low polyreactivity |
| QVQLVESGGGLVQAGGSLRLSCAASGSTFVNNAMGWYRQAPGKERELVASITQSGGSTFYADSVKGRFTISRDNAKNTVYLQMNSLKPEDTAVYYWGQGTQVTVSS | low polyreactivity |
| QVQLVESGGGLVQAGGSLRLSCAASGSTFVPYAMGWYRQAPGKERELVAAINIGGRTNYADSVKGRFTISRDNAKNTVYLQMNSLKPEDTAVYYCAAEWGYYARSQYYYWGQGTQVTVSS | low polyreactivity |
| QVQLVESGGGLVQAGGSLRLSCAASGSTFVPYTMGWYRQAPGKERELVAAISGSGGTDYADSVKGRFTISRDNAKITVYLQLNSLKPEDTAVYYCGTDGLDFWFIYDYWGQGTQVTVSS | low polyreactivity |
| QVQLVESGGGLVQAGGSLRLSCAASGSTFVPYTMGWYRQAPGKERELVAVITSGGSTNYADSVKGRFTISLDNAKNTVYLQMNSLKPEDTAVYYCDARRRGRKERGEDYWGQGTQVTVSS | high polyreactivity |
| QVQLVESGGGLVQAGGSLRLSCAASGSTFVQYAMGWYRQAPGKERELVAAIRGRGDSTYYADSVKGRFTISRDNAKNTVYLQMNSLKPEDTAVYYCAARGQGSRGMYYWGQGTQVTVSS | low polyreactivity |
| QVQLVESGGGLVQAGGSLRLSCAASGSTFVRNAMGWYRQAPGKDRELVAAIRWRSGSTYYADSVKGRFTISRDNAKNTVYLQMNSLKPEDTAVYYCAKAFSRTTYRYDYWGQGTQVTVSS | high polyreactivity |
| QVQLVESGGGLVQAGGSLRLSCAASGSTFVRNAMGWYRQAPGKERELVAAIRWRSGSTYYADSVKGRFTISRDNAKNTVYFQMNSLKPEDTAVYYCAVKGLGKMNYWGQGTQVTVSS | high polyreactivity |
| QVQLVESGGGLVQAGGSLRLSCAASGSTFVRNAMGWYRQAPGKERELVAAISWSGGRTYYADSVKGRFTISRDNAKNTVYLQMNSLKPEDTAVYYCAARGYAGVDYDYWGQGTQVTVSS | high polyreactivity |
| QVQLVESGGGLVQAGGSLRLSCAASGSTFVRNAMGWYRQAPGKERELVAAITRGGRTYYADSVKGRFTISRDNAKNTVYLQLNSLKPEVTAVYYCAKPSSPSLGGVSDRNYWGQGTQVTVSS | low polyreactivity |
| QVQLVESGGGLVQAGGSLRLSCAASGSTFVRNDKGWYRQAPGTEREFVAAINGDGRTYYADSVKGRFTISRDNEKNTVYLQMNSLKPEDTAVYYCAADWKSSRSYSYEMDYWGQGTQVTVSS | low polyreactivity |
| QVQLVESGGGLVQAGGSLRLSCAASGSTFVRNGMGWYRKAPGKERELVAAITRGGSTYYADSVKGRFTISRDNAKNTVYLQMNSLKPEDTAVYYSAKRYRGGYYYPYNYWGLGTQVTVSS | high polyreactivity |
| QVQLVESGGGLVQAGGSLRLSCAASGSTFVRNVMGWYRQAPGKERELVARISWSGTGTYYADSVKGRFTISRDNAKNTVYLQMNSLKPEDTAVYYCAARSTVYISSDYWGQGTQVTVSS | low polyreactivity |
| QVQLVESGGGLVQAGGSLRLSCAASGSTFVRYAMGWYRQAPGKERELVASISSSGSTYYADSVKGRFTISRDNAKNTVYLQMNSLKPEDTAVYYCAKQYGGRYGYWGQGTQVTLSS | low polyreactivity |
| QVQLVESGGGLVQAGGSLRLSCAASGSTFVRYAMGWYRQAPGKERELVATISSRGGRTYYADSVKGRFTISRDNAKNTVYLQMNSLKPEDTAVYYCAADRRAAVPFGYGYWGQGTQVTVSS | high polyreactivity |
| QVQLVESGGGLVQAGGSLRLSCAASGSTFVSNAMGGYRQAPGKERELVAAISSSGGRTSYADSVKGRFTISRDNAKNTVYLQMNSLKPEDTAVYYCAARFKSVDYVQYYYWGQGTQVTVSS | low polyreactivity |
| QVQLVESGGGLVQAGGSLRLSCAASGSTFVSNAMGWYRPAPGKERELVAAINGSGGITYYADSVKGRFTISRDNAKNTVYLQMNSLKPEDTAVYYCAAEYDGPSTWVDYYYHYGYWGQGTQVTVSS | low polyreactivity |
